Source: article PMC9863593, “Crystal Structure of Allantoinase from Escherichia coli BL21: A Molecular Insight into a Role of the Active Site Loops in Catalysis” (Molecules, 2023)

Target: the molecule itself
Assay: crystal structure; hanging drop vapor diffusion, room temperature, 20% PEG8000, 100 mM CHES pH 9.5; protein at 30 mg/mL; space group C121; four monomers per asymmetric unit; 2.07 Å

B1: Allantoinase from Escherichia coli BL21 (enzyme)
chain: MSFDLIIKNGTVILENEARVVDIAVKGGKIAAIGQDLGDAKEVMDASGLVVSPGMVDAHTHISEPGRSHWEGYETGTRAAAKGGITTMIEMPLNQLPATVDRASIELKFDAAKGKLTIDAAQLGGLVSYNIDRLHELDEVGVVGFKCFVATCGDRGIDNDFRDVNDWQFFKGAQKLGELGQPVLVHCENALICDELGEEAKREGRVTAHDYVASRPVFTEVEAIRRVLYLAKVAGCRLHVCHVSSPEGVEEVTRARQEGQDVTCESCPHYFVLDTDQFEEIGTLAKCSPPIRDLENQKGMWEKLFNGEIDCLVSDHSPCPPEMKAGNIMEAWGGIAGLQNCMDVMFDEAVQKRGMSLPMFGKLMATNAADIFGLQQKGRIAPGKDADFVFIQPNSSYVLTNDDLEYRHKVSPYVGRTIGARITKTILRGDVIYDIEQGFPVAPKGQFILKHQQ
modifications: carbamylated lysine at 146 (Kcx146)
notes: Allantoinase (allB, ECD_00462) of E. coli BL21; predicted monomer of 453 amino acid residues, 49.6 kDa; Zinc-amended enzyme with 2 Zn ions per monomer; construct limits and tag are not described here; Residues 452-453 are said to be seen in the structure; also called EcALLase-BL21; E. coli BL21 ALLase
  stoichiometry N: 4
